The target of the experiment is all six recombinant human Tau isoforms. Put plainly: immunoaffinity purification on 13A6 beads, trypsin digestion and LC-MS/MS, with against without purification.

The results in this text go back to patent US20150253341A1.

B1: mouse monoclonal anti-Tau antibody clone 13A6 (antibody, V domains shown)
VH: EVQLQQSGAELVRPGASVKLPCTASGFNIKDDYMNWVMQRPERGLEWIGWIDPENGDTAYASKFQGKATMTADTSSNTAYLQLSSLTSEDTAVYYCTSGGRFDYWGQGTSLTVSS
VL: DVLMTQTPLSLPVSLGDQASISCRSSQSIVHSNGSTYLEWYLQKPGQSPKLLIYKVSNRFSGVPDRFSGSGSGTDFTLKINRVEAEDLGVYYCFQGSHVPWTFGGGTKLEIK
In the case of B1, the percent recovery fell in the range of 60 to 75%.
